Where “and” joins values, the source holds several entries; their conditions need not be identical. Equal entries are not always repeated. Where two headings read alike, the source gives them in different places.
Columns and labels:
CD27-mFc (Kangdai) [1] = molecular target: T1, CD27-mFc (Kangdai) (human, UniProt P26842 21-192, limits assumed); experiment: ELISA on coated CD27-mFc
T1 construct: Bought reagent; also called antigen CD27-mFc; solid-phase human CD27; not shown: mouse Fc (mFc)
T1 sequence (looked up): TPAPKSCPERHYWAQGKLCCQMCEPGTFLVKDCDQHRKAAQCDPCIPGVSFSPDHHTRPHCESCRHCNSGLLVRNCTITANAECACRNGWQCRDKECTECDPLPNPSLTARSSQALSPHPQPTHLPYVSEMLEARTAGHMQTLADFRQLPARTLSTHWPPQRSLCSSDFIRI

[2] = molecular target: T2, antigen CD27 (soluble, as used in the BLI and SPR experiments) (UniProt P26842 21-192, limits assumed); experiment: SPR, Biacore T200, CM5 chip
T2 sequence (looked up): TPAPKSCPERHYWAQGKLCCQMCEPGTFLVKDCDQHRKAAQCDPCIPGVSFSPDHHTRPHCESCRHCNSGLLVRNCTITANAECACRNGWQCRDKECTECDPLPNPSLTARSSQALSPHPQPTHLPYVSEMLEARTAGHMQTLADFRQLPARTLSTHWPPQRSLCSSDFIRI

[3] = molecular target: T3, human CD27 (transmembrane protein) on the cell membrane (human, UniProt P26842 20-260); experiment: flow cytometry on CHO cells expressing human CD27
T3 construct: whole, on cells; One molecule is used for CD27 on CHO-CD27 cells, on human PBMC T and B cells and on Jurkat reporter cells; also called CHO-CD27
T3 sequence (looked up): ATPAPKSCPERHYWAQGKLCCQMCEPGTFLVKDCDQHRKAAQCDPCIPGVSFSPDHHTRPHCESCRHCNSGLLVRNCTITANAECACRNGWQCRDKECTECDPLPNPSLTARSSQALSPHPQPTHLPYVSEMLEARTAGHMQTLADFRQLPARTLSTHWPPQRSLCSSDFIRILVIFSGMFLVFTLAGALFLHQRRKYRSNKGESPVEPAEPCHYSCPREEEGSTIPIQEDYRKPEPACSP

CD27-mFc (Kangdai) [4] = molecular target: T1, CD27-mFc (Kangdai); experiment: competition ELISA: CD70 coated, CD27-mFc plus antibody dilutions; competitor CD70
CD27-mFc (Kangdai) [5] = molecular target: T1, CD27-mFc (Kangdai); experiment: as above; remark: listed apart in the source
CD27-mFc (Kangdai) [6] = molecular target: T1, CD27-mFc (Kangdai); experiment: ELISA on coated CD27-mFc (1 ug/mL), AP anti-human Fc detection, absorption at 405/490 nm (Example 15.2)
CD27-mFc (Kangdai) [7] = molecular target: T1, CD27-mFc (Kangdai); experiment: ELISA on coated CD27-mFc; remark: listed apart in the source
[8] = molecular target: T4, human CD64 on CHO-K cells (CHO-CD64) (human, UniProt P12314 16-374); experiment: flow cytometry on CHO-CD64 cells, FITC anti-human Fc detection (Example 16)
T4 construct: whole, on cells; also called membrane CD64
T4 sequence (P12314 16-374): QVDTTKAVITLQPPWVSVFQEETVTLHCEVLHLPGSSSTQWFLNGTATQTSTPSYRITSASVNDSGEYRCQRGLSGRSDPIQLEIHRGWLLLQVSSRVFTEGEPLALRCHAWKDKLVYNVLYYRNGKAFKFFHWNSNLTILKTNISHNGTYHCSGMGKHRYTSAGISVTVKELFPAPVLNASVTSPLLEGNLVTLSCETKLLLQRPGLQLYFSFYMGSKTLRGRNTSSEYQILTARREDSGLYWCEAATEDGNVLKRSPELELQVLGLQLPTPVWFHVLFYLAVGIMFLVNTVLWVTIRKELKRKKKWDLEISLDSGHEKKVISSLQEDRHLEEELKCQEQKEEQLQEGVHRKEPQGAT

[9] = molecular target: T5, human CD32a on Jurkat cells (Jurkat-CD32a) (human, UniProt P12318 34-317); experiment: flow cytometry on Jurkat-CD32a cells, FITC anti-human Fc detection (Example 16)
T5 construct: whole, on cells; also called membrane CD32a
T5 sequence (looked up): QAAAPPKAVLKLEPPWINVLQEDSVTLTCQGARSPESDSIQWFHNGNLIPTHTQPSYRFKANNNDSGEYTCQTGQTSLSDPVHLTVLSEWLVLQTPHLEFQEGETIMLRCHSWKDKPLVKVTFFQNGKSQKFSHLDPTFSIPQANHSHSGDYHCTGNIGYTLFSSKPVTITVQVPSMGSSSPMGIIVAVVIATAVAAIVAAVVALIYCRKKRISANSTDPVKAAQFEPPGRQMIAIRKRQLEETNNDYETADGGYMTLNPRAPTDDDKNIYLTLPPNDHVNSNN

CD27-mFc (Kangdai) [10] = molecular target: T1, CD27-mFc (Kangdai); experiment: competition ELISA: coated CD70 (1 ug/mL), CD27-mFc plus antibody dilution, HRP anti-mouse Fc detection, absorption at 450/655 nm (Example 15.3); blocked ligand CD70
CD27-mFc (Kangdai) [11] = molecular target: T1, CD27-mFc (Kangdai); experiment: ELISA on coated CD27-mFc; remark: listed apart in the source
[12] = molecular target: T3, human CD27 (transmembrane protein) on …; experiment: flow cytometry on CHO cells expressing human CD27; remark: listed apart in the source
[13] = molecular target: T2, antigen CD27 (soluble, as used in the …); experiment: BLI, antibody captured on AHC probe, CD27 in solution
mouse CD27 = molecular target: T6, mouse CD27 (mouse, UniProt P41272 24-182, limits assumed); experiment: hybridoma screening; format not described
T6 sequence (looked up): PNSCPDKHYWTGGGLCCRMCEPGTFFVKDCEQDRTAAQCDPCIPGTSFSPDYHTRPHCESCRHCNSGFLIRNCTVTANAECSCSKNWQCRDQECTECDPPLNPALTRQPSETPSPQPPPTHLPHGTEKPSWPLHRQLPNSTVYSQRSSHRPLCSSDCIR

B1: 13B3-huH2L3 (P33430) humanized CD27 monoclonal antibody (antibody, human IgG1)
heavy: not shown
VL: DIVLTQSPATLSVSPGERVTLSCRASQSVSNSLHWYQQKPGQAPRLLIMYTSQSISGIPARFSGSGSGTDFTLTISSVEPEDFAVYYCQQSNSWPLTFGGGTKLELK
notes: also called huVH2 + huVL3
With B1 the EC50 (CD27-mFc (Kangdai) [1]) was 0.0418 µg/mL and 0.28 nM, the Kd [2] was 391 pM and the koff [2] was 0.000684 s⁻¹. For the same binder, the kon [2] was 1.75e+06 M⁻¹ s⁻¹, the EC50 [3] was 0.211 µg/mL and 1.41 nM and the IC50 (CD27-mFc (Kangdai) [4]) was 1.95 µg/mL and 13.1 nM.

B2: 13B3-huH3L4 (P33434) humanized CD27 monoclonal antibody (antibody, V domains shown)
VH: QVQLVQSGAEVKKPGASVKVSCKTSGYAFSQSWMNWVRQAPGQGLEWIGRIYPGDGDTNYNGIFQGRVTLTADTSISTAYMELSRLRSDDTAVYYCASMIRTTYVMDHWGQGTTVTVSS
VL: EIVLTQSPATLSLSPGERATLSCRASQSVSNSLHWYQQKPGQAPRLLIMYTSQSISGIPARFSGSGSGTDFTLTISSLEPEDFAVYYCQQSNSWPLTFGGGTKLELK
notes: also called huVH3 + huVL4
For B2, the EC50 (CD27-mFc (Kangdai) [1]) was 0.0361 µg/mL and 0.242 nM, the EC50 [3] was 0.242 µg/mL and 1.62 nM and the IC50 (CD27-mFc (Kangdai) [4]) was 1.75 µg/mL and 11.7 nM.

B3: 13B3-huH2L3 (LALA) variant antibody (antibody, human IgG1, L234A L235A)
heavy: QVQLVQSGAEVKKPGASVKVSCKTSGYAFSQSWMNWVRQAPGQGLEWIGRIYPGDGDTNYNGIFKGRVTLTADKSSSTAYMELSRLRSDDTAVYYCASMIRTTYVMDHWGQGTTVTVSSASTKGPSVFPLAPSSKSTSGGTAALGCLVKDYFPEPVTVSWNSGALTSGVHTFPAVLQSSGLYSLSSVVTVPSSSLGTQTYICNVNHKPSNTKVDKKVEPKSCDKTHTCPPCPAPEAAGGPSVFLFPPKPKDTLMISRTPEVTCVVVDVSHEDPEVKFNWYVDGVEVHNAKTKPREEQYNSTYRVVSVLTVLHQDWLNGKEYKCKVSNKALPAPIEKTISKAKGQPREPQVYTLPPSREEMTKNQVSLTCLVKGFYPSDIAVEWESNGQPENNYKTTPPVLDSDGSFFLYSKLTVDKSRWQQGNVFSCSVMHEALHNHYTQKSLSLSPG
VL: DIVLTQSPATLSVSPGERVTLSCRASQSVSNSLHWYQQKPGQAPRLLIMYTSQSISGIPARFSGSGSGTDFTLTISSVEPEDFAVYYCQQSNSWPLTFGGGTKLELK
notes: The light chain is that of 13B3-huH2L3 (huVL3)
With B3 the IC50 (CD27-mFc (Kangdai) [5]) was 1.09 µg/mL and the EC50 (CD27-mFc (Kangdai) [6]) was 0.037 µg/mL.

B4: 13B3-huH2L4 (LALA) variant antibody (antibody, human IgG1, L234A L235A)
heavy: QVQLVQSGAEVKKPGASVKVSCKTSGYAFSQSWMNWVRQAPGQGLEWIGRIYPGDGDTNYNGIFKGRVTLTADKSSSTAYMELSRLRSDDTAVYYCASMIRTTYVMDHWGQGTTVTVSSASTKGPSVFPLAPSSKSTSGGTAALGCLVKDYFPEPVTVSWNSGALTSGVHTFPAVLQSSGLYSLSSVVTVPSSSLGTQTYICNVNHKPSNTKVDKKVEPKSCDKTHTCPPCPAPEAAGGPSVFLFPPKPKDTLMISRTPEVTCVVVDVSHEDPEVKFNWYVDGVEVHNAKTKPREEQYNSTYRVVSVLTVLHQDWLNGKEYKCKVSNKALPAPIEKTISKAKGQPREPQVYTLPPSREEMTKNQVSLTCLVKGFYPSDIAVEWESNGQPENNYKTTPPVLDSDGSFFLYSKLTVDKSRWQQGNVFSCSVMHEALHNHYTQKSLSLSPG
VL: EIVLTQSPATLSLSPGERATLSCRASQSVSNSLHWYQQKPGQAPRLLIMYTSQSISGIPARFSGSGSGTDFTLTISSLEPEDFAVYYCQQSNSWPLTFGGGTKLELK
notes: The light chain is that of 13B3-huH2L4 (huVL4); also called mutant antibody
B4 was tested, and the EC50 (CD27-mFc (Kangdai) [7]) was 0.029 µg/mL, the binding result [8] was “no binding (tested: 10 µg/mL)” and the binding result [9] was “no binding (tested: 10 µg/mL)”. It also gave an IC50 (CD27-mFc (Kangdai) [10]) of 1.12 µg/mL.

B5: 13B3-huH4L3 (P33432) humanized CD27 monoclonal antibody (antibody, V domains shown)
VH: QVQLVQSGAEVKKPGASVKVSCKTSGYAFSQSWMNWVRQAPGQGLEWMGRIYPGDGDTNYAQKFQGRVTMTADTSISTAYMELSRLRSDDTAVYYCASMIRTTYVMDHWGQGTTVTVSS
VL: DIVLTQSPATLSVSPGERVTLSCRASQSVSNSLHWYQQKPGQAPRLLIMYTSQSISGIPARFSGSGSGTDFTLTISSVEPEDFAVYYCQQSNSWPLTFGGGTKLELK
For B5, the IC50 (CD27-mFc (Kangdai) [4]) was 1.91 µg/mL and 12.8 nM.

B6: 13B3-huH2L4 (P33433) humanized CD27 monoclonal antibody (antibody, human IgG1)
heavy: not shown
VL: EIVLTQSPATLSLSPGERATLSCRASQSVSNSLHWYQQKPGQAPRLLIMYTSQSISGIPARFSGSGSGTDFTLTISSLEPEDFAVYYCQQSNSWPLTFGGGTKLELK
notes: also called huVH2 + huVL4; parent antibody (wild-type)
In the case of B6, the EC50 (CD27-mFc (Kangdai) [7]) is reported as 0.029 µg/mL, the EC50 (CD27-mFc (Kangdai) [1]) is reported as 0.0409 µg/mL and 0.274 nM and the EC50 [3] is reported as 0.224 µg/mL and 1.5 nM. The IC50 (CD27-mFc (Kangdai) [5]) was 1.31 µg/mL, the IC50 (CD27-mFc (Kangdai) [4]) was 1.91 µg/mL and 12.8 nM and the “EC50 (read off the curve)” value [8] was roughly 0.7 µg/mL.

B7: 13B3-huH4L1 (P33425) humanized CD27 monoclonal antibody (antibody, V domains shown)
VH: QVQLVQSGAEVKKPGASVKVSCKTSGYAFSQSWMNWVRQAPGQGLEWMGRIYPGDGDTNYAQKFQGRVTMTADTSISTAYMELSRLRSDDTAVYYCASMIRTTYVMDHWGQGTTVTVSS
VL: EIVLTQSPDFLSVTPKEKVTLTCRASQSVSNSLHWYQQKPDQSPKLLIMYTSQSISGIPSRFSGSGSGTDFTLTINSVEAEDAATYYCQQSNSWPLTFGGGTKLELK
notes: also called huVH4 + huVL1
For B7, the EC50 (CD27-mFc (Kangdai) [1]) was 0.0371 µg/mL and 0.249 nM, the Kd [2] was 699 pM and the koff [2] was 0.00135 s⁻¹. The kon [2] was 1.93e+06 M⁻¹ s⁻¹ and the EC50 [3] was 0.19 µg/mL and 1.27 nM.

B8: 13B3-huH2L2 (P33426) humanized CD27 monoclonal antibody (antibody, V domains shown)
VH: QVQLVQSGAEVKKPGASVKVSCKTSGYAFSQSWMNWVRQAPGQGLEWIGRIYPGDGDTNYNGIFKGRVTLTADKSSSTAYMELSRLRSDDTAVYYCASMIRTTYVMDHWGQGTTVTVSS
VL: IVLTQSPDFQSVTPKEKVTITCRASQSVSNSLHWYQQKPDQSPKLLIMYTSQSISGVPSRFSGSGSGTDFTLTINSLEAEDAATYYCQQSNSWPLTFGGGTKLELK
notes: also called huVH2 + huVL2
In the case of B8, the EC50 (CD27-mFc (Kangdai) [1]) is reported as 0.0486 µg/mL and 0.325 nM, the Kd [2] is reported as 643 pM and the koff [2] is reported as 0.00106 s⁻¹. The kon [2] was 1.65e+06 M⁻¹ s⁻¹, the EC50 [3] was 0.221 µg/mL and 1.48 nM and the IC50 (CD27-mFc (Kangdai) [4]) was 1.92 µg/mL and 12.8 nM.

B9: 17H8-hFc human-mouse chimeric CD27 monoclonal antibody (antibody, V domains shown)
VH: EVKLEESGGGLVQPGGSMKLSCVASGFTFSNYWMNWVRQSPEKGLEWVAEIRLKSNNYATYYAESVKGRFTISRDDSKSSVYLQMNSLRGEDTGIYYCTLYDSSYYYAMDYWGQGTSVTVSS
VL: DVVLTQTPLSLPVNIGDQASISCKSTQSLLHSDGFTYLDWYLQKPGQSPQLLIYLVSNRFLGVPDRFSGSGSRTDFTLKISRVEAEDLGVYYCFQSNYLPLTFGGGTKLEI
notes: Mouse 17H8 variable regions on human constant regions
Work on B9 yielded an EC50 (CD27-mFc (Kangdai) [11]) of 0.0754 µg/mL, an EC50 [12] of roughly 90.6 µg/mL and a Kd [13] of 1300 pM. It also gave a koff [13] of 0.00016 s⁻¹ and a kon [13] of 123000 M⁻¹ s⁻¹.

B10: 17H8 anti-human CD27 mouse monoclonal antibody (hybridoma clone) (antibody, V domains shown)
VH: EVKLEESGGGLVQPGGSMKLSCVASGFTFSNYWMNWVRQSPEKGLEWVAEIRLKSNNYATYYAESVKGRFTISRDDSKSSVYLQMNSLRGEDTGIYYCTLYDSSYYYAMDYWGQGTSVTVSS
VL: DVVLTQTPLSLPVNIGDQASISCKSTQSLLHSDGFTYLDWYLQKPGQSPQLLIYLVSNRFLGVPDRFSGSGSRTDFTLKISRVEAEDLGVYYCFQSNYLPLTFGGGTKLEI
notes: also called 17H8-1-1
B10: no binding (mouse CD27).

B11: 13B3 anti-human CD27 mouse monoclonal antibody (hybridoma clone) (antibody, V domains shown)
VH: QVQLQQSGPEQVKPGASVKISCKTSGYAFSQSWMNWVKQRPGQGLEWIGRIYPGDGDTNYNGIFKGKATLTADKSSSTAYMQLSSLTSLDSAVYFCASMIRTTYVMDHWGQGTSVTVTS
VL: DIVLTQSPATLSVTPGDSVSLSCRASQSVSNSLHWYQQKSHESPRLLIMYTSQSISGIPSRFSGSGSGTDFTLSINSVETEDFGMYFCQQSNSWPLTFGAGTKLELK
notes: also called 16B1-1-1
B11: no binding (mouse CD27).

B12: 16B1 anti-human CD27 mouse monoclonal antibody (hybridoma clone) (antibody, V domains shown)
VH: QVQLQQSGPEQVKPGASVKISCKTSGYAFSQSWMNWVKQRPGQGLEWIGRIYPGDGDTNYNGIFKGKATLTADKSSSTAYMQLSSLTSLDSAVYFCASMIRTTYVMDHWGQGTSVTVTS
VL: DIVLTQSPATLSVTPGDSVSLSCRASQSVSNSLHWYQQKSHESPRLLIMYTSQSISGIPSRFSGSGSGTDFTLSINSVETEDFGMYFCQQSNSWPLTFGAGTKLELK
notes: Tested as hybridoma supernatant; also called 16B1-1-1
B12: no binding (mouse CD27).
